B1: Erk2-binding clone group N (RNF8-FHA domain-modified protein) (designed binder)
chain: GEPGFFVTGDRAGGRSWCLRRVGMSAGWLLLEDGCEVTVGWGGGVTYQLVSKGYLWQRRTNHCVLKQNPEGQWTIMDNKVLGGVWLNRARLEPLRVYSIHQGDYIQLGLRSLLLENAEYEYEVTEEDWETIYPCLSPKNDQMIEKN
notes: Purified protein from E. coli; also called Erk2 clone N; clone N; not shown: N-terminal fusion partner from vector pET-MalStrep (MBP/Strep) and FLAG tag
B2: Erk2-binding clone group L (RNF8-FHA domain-modified protein) (designed binder)
chain: GEPGFFVTGDRAGGRSWCLRRVGMSAGWLLLEDGCEVTVGFGTGVTYQLVSKYLPSWFTYNHCVLKQNPEGQWTIMDNKSLTGVWLNRARLEPLRVYSIHQGDYIQLGAMFSDVENAEYEYEVTEEDWETIYPCLSPKNDQMIEKN
notes: Only tested in the primary screening ELISA (E. coli extract); not shown: N-terminal fusion partner from vector pET-MalStrep (MBP/Strep) and FLAG tag
B3: Erk2-binding clone group G (RNF8-FHA domain-modified protein) (designed binder)
chain: GEPGFFVTGDRAGGRSWCLRRVGMSAGWLLLEDGCEVTVGFGTGVTYQLVSKYLPSWFTYNHCVLKQNPEGQWTIMDNKSLTGVWLNRARLEPLRVYSIHQGDYIQLGSLPGLAENAEYEYEVTEEDWETIYPCLSPKNDQMIEKN
notes: as for B2
B4: Erk2-binding clone group H (RNF8-FHA domain-modified protein) (designed binder)
chain: GEPGFFVTGDRAGGRSWCLRRVGMSAGWLLLEDGCEVTVGFGTGVTYQLVSKYLPSWFTYNHCVLKQNPEGQWTIMDNKSLTGVWLNRARLEPLRVYSIHQGDYIQLGLVAYGAENAEYEYEVTEEDWETIYPCLSPKNDQMIEKN
notes: as for B2
B5: Erk2-binding clone group F (RNF8-FHA domain-modified protein) (designed binder)
chain: GEPGFFVTGDRAGGRSWCLRRVGMSAGWLLLEDGCEVTVGFGTGVTYQLVSKYLPSWFTYNHCVLKQNPEGQWTIMDNKSLTGVWLNRARLEPLRVYSIHQGDYIQLGSMRHMLENAEYEYEVTEEDWETIYPCLSPKNDQMIEKN
notes: as for B2
B6: Erk2-binding clone group E (RNF8-FHA domain-modified protein) (designed binder)
chain: GEPGFFVTGDRAGGRSWCLRRVGMSAGWLLLEDGCEVTVGFGTGVTYQLVSKYLPSWFTYNHCVLKQNPEGQWTIMDNKSLTGVWLNRARLEPLRVYSIHQGDYIQLGETGLEWENAEYEYEVTEEDWETIYPCLSPKNDQMIEKN
notes: as for B2
B7: Erk2-binding clone group I (RNF8-FHA domain-modified protein) (designed binder)
chain: GEPGFFVTGDRAGGRSWCLRRVGMSAGWLLLEDGCEVTVGFGTGVTYQLVSKYLPSWFTYNHCVLKQNPEGQWTIMDNKSLTGVWLNRARLEPLRVYSIHQGDYIQLGSLAANLENAEYEYEVTEEDWETIYPCLSPKNDQMIEKN
notes: as for B2
B8: Erk2-binding clone group K (RNF8-FHA domain-modified protein) (designed binder)
chain: GEPGFFVTGDRAGGRSWCLRRVGMSAGWLLLEDGCEVTVGFGTGVTYQLVSKYLPSWFTYNHCVLKQNPEGQWTIMDNKSLTGVWLNRARLEPLRVYSIHQGDYIQLGEDRFGLENAEYEYEVTEEDWETIYPCLSPKNDQMIEKN
notes: as for B2
B9: Erk2-binding clone group M (RNF8-FHA domain-modified protein) (designed binder)
chain: GEPGFFVTGDRAGGRSWCLRRVGMSAGWLLLEDGCEVTVGFGTGVTYQLVSKYLPSWFTYNHCVLKQNPEGQWTIMDNKSLTGVWLNRARLEPLRVYSIHQGDYIQLGALRCRLENAEYEYEVTEEDWETIYPCLSPKNDQMIEKN
notes: as for B2
B10: Erk2-binding clone group B (RNF8-FHA domain-modified protein) (designed binder)
chain: GEPGFFVTGDRAGGRSWCLRRVGMSAGWLLLEDGCEVTVGFGTGVTYQLVSKYLPSWFTYNHCVLKQNPEGQWTIMDNKSLTGVWLNRARLEPLRVYSIHQGDYIQLGALKQSLENAEYEYEVTEEDWETIYPCLSPKNDQMIEKN
notes: Loop 4 ALKQSL; loops 1-3 as group A; also called Erk2 clone B; not shown: N-terminal fusion partner from vector pET-MalStrep (MBP/Strep) and FLAG tag
B11: Erk2-binding clone group C (RNF8-FHA domain-modified protein) (designed binder)
chain: GEPGFFVTGDRAGGRSWCLRRVGMSAGWLLLEDGCEVTVGFGTGVTYQLVSKYLPSWFTYNHCVLKQNPEGQWTIMDNKSLTGVWLNRARLEPLRVYSIHQGDYIQLGAMTTSYENAEYEYEVTEEDWETIYPCLSPKNDQMIEKN
notes: Loop 4 AMTTSY; loops 1-3 as group A; also called Erk2 clone C; not shown: N-terminal fusion partner from vector pET-MalStrep (MBP/Strep) and FLAG tag
B12: Erk2-binding clone group D (RNF8-FHA domain-modified protein) (designed binder)
chain: GEPGFFVTGDRAGGRSWCLRRVGMSAGWLLLEDGCEVTVGFGTGVTYQLVSKYLPSWFTYNHCVLKQNPEGQWTIMDNKSLTGVWLNRARLEPLRVYSIHQGDYIQLGSHKWWVENAEYEYEVTEEDWETIYPCLSPKNDQMIEKN
notes: Loop 4 SHKWWV; loops 1-3 as group A; also called Erk2 clone D; not shown: N-terminal fusion partner from vector pET-MalStrep (MBP/Strep) and FLAG tag
B13: Erk2-binding clone group A (RNF8-FHA domain-modified protein) (designed binder)
chain: GEPGFFVTGDRAGGRSWCLRRVGMSAGWLLLEDGCEVTVGFGTGVTYQLVSKYLPSWFTYNHCVLKQNPEGQWTIMDNKSLTGVWLNRARLEPLRVYSIHQGDYIQLGGIWSDLENAEYEYEVTEEDWETIYPCLSPKNDQMIEKN
notes: Expressed from pET-MalStrep in E. coli; also called Erk2 clone A; not shown: N-terminal fusion partner from E. coli vector pET-MalStrep (MBP, purified on MBPTrap)
B14: Trx-binding clone group H (RNF8-FHA domain-modified protein) (designed binder)
chain: GEPGFFVTGDRAGGRSWCLRRVGMSAGWLLLEDGCEVTVGSDWGVTYQLVSKRWLGNVVFNHCVLKQNPEGQWTIMDNKAGHGVWLNRARLEPLRVYSIHQGDYIQLGEPSSLHENAEYEYEVTEEDWETIYPCLSPKNDQMIEKN
notes: not shown: N-terminal fusion partner from vector pET-MalStrep (MBP/Strep) and FLAG tag
B15: Trx-binding clone group A (RNF8-FHA domain-modified protein) (designed binder)
chain: GEPGFFVTGDRAGGRSWCLRRVGMSAGWLLLEDGCEVTVGFVPGVTYQLVSKVLFAEKNANHCVLKQNPEGQWTIMDNKVWNGVWLNRARLEPLRVYSIHQGDYIQLGQVSPLGENAEYEYEVTEEDWETIYPCLSPKNDQMIEKN
notes: also called Trx clone A; not shown: N-terminal fusion partner from vector pET-MalStrep (MBP/Strep) and FLAG tag
B16: Trx-binding clone group C (RNF8-FHA domain-modified protein) (designed binder)
chain: GEPGFFVTGDRAGGRSWCLRRVGMSAGWLLLEDGCEVTVGFVPGVTYQLVSKVLFAEKNANHCVLKQNPEGQWTIMDNKVWNGVWLNRARLEPLRVYSIHQGDYIQLGGVFRKGENAEYEYEVTEEDWETIYPCLSPKNDQMIEKN
notes: Loop 4 GVFRKG; loops 1-3 as Trx group A; not shown: N-terminal fusion partner from vector pET-MalStrep (MBP/Strep) and FLAG tag
B17: Trx-binding clone group G (RNF8-FHA domain-modified protein) (designed binder)
chain: GEPGFFVTGDRAGGRSWCLRRVGMSAGWLLLEDGCEVTVGFLPGVTYQLVSKPMRREKNMNHCVLKQNPEGQWTIMDNKVRIGVWLNRARLEPLRVYSIHQGDYIQLGQVSPLGENAEYEYEVTEEDWETIYPCLSPKNDQMIEKN
notes: as for B14
B18: Trx-binding clone group D (RNF8-FHA domain-modified protein) (designed binder)
chain: GEPGFFVTGDRAGGRSWCLRRVGMSAGWLLLEDGCEVTVGFVPGVTYQLVSKVLFAEKNANHCVLKQNPEGQWTIMDNKVWNGVWLNRARLEPLRVYSIHQGDYIQLGRGCLGLENAEYEYEVTEEDWETIYPCLSPKNDQMIEKN
notes: Loop 4 RGCLGL; loops 1-3 as Trx group A; not shown: N-terminal fusion partner from vector pET-MalStrep (MBP/Strep) and FLAG tag
B19: Trx clone A expressed from pcDNA3.1-RNF8-V5/His in HEK293T cells (designed binder)
chain: GEPGFFVTGDRAGGRSWCLRRVGMSAGWLLLEDGCEVTVGFVPGVTYQLVSKVLFAEKNANHCVLKQNPEGQWTIMDNKVWNGVWLNRARLEPLRVYSIHQGDYIQLGQVSPLGENAEYEYEVTEEDWETIYPCLSPKNDQMIEKN
notes: Control clone in the pull-down of endogenous Erk1/2; not shown: C-terminal V5 and His tags of vector pcDNA3.1-V5/His

T1 sequence (P28482 whole entry): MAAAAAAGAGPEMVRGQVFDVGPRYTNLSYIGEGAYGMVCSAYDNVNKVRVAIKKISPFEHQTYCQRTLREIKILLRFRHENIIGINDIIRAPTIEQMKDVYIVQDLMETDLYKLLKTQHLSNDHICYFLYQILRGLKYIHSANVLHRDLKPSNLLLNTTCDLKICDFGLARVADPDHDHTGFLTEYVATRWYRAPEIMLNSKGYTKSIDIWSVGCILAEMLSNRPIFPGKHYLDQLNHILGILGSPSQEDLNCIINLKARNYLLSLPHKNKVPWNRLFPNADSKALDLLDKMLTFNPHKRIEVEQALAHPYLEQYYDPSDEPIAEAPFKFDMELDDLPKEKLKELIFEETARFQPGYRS
T4 sequence (P28482 2-360 limits assumed): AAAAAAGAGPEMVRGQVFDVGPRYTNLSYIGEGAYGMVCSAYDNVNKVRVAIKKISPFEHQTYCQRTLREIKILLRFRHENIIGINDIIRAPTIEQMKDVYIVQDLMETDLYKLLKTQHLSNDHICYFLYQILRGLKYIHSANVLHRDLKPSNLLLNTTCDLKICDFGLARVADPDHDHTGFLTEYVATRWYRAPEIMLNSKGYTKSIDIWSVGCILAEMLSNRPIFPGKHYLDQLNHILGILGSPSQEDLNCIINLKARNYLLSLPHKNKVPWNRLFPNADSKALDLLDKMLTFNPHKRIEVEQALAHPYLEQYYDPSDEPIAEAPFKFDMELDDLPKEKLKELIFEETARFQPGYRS

The first assay has as its target T1, human Erk2 (extracellular signal-regulated kinase 2), purchased from Sigma (human, UniProt P28482 1-360, limits assumed).
T1 construct: Biotinylated with EZ-Link NHS-PEO4-Biotin for selection and for SPR (SA sensor chip); immobilised directly on the plate for ELISA; also called recombinant Erk2 protein; Erk2 protein
Nature of the assay: SPR (BIACORE 3000), biotinylated Erk2 on SA sensor chip. For orientation: SPR reads the build-up and loss of mass on a sensor chip optically.
For B1, the Kd turned out to be 30 nM.

A further assay concerns the target T1, human Erk2 (extracellular …). Nature of the assay: primary screening ELISA, E. coli extract on immobilised antigen, anti-FLAG-HRP.
On to B2, for which the binding result is “binds”. Same read-out and setting: for B3 the value was “binds”; for B4, “binds”. On the same count and under the same terms, for B5 the value was “binds”; for B6, “binds”. Turning to B7, the binding result is “binds”. On the same count and under the same terms, the result for B8 reads “binds”; that for B9, “binds”.

The next assay has the same target. Nature of the assay: ELISA, purified clone 500 ng/well on immobilised antigen, anti-FLAG-HRP detection. On the technique in general: ELISA stands for enzyme-linked immunosorbent assay.
As for B1, the “ELISA (S/N)” value worked out at 12.6 S/N. Same read-out and setting: the result for B10 reads 30 S/N; that for B11, 12 S/N. Same read-out and setting: for B12 the value was 13.6 S/N; for B13, 30 S/N.

The target in the next assay is T2, Escherichia coli thioredoxin, purchased from Sigma (Escherichia coli, UniProt P0AA25 2-109 = thioredoxin).
T2 construct: Immobilised on the plate for ELISA; also called Trx
T2 sequence (P0AA25 2-109 limits assumed): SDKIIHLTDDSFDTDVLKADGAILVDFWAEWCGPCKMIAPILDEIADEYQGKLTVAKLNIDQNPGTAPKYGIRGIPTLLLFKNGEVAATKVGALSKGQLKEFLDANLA
The description is as above.
Regarding B14, the “ELISA (S/N)” value was 5.7 S/N. On the same count and under the same terms, the result for B15 reads 30.5 S/N; that for B16, 4.4 S/N. On the same count and under the same terms, for B17 the value was 22.2 S/N; for B18, 4.7 S/N.

The target in another assay is T3, endogenous Erk1 of HEK293T cells (UniProt P27361 2-379).
T3 construct: Endogenous intracellular protein, not a recombinant construct; also called Erk1/2
T3 sequence (P27361 2-379 limits assumed): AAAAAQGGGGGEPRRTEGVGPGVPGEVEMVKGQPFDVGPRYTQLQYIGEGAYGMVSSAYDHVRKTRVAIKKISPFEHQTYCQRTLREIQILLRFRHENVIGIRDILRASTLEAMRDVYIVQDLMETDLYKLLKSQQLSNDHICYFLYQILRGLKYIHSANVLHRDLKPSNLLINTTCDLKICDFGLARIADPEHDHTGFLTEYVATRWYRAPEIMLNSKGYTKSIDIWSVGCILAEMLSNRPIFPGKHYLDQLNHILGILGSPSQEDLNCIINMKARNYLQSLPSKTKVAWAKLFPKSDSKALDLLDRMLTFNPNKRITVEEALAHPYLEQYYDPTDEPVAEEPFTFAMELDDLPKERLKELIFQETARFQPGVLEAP
Briefly: His-tag (TALON resin) pull-down from transfected HEK293T cells, Western blot with anti-ERK antibody. Background: In western blotting, separated proteins are transferred to a membrane and probed.
Consider B19, for which the binding result is listed as “no binding”.

The next assay has as its target T4, endogenous Erk2 of HEK293T cells (UniProt P28482 2-360).
T4 construct: Endogenous intracellular protein, not a recombinant construct; also called Erk1/2
Described as above.
On to B19, for which the binding result is given as “no binding”.

The next assay has as its target T1, human Erk2 (extracellular …). Nature of the assay: Immunoprecipitation on anti-FLAG M2 agarose of recombinant Erk2 added to HEK293T cell lysate; SDS-PAGE (CBB staining) and Western blot with anti-ERK antibody.
Consider B15, for which the binding result is recorded as “no binding”.

A word on the Kd: it is a measure of binding affinity in units of concentration. Higher therefore signals weaker binding.

These data come from patent US20130143299A1 (GENEFRONTIER, published 2013).
